The results in this text go back to patent US20060073572A1, “Cytokine structurally related to IL-17” (The Johns Hopkins University, priority 2001, published 2006).

What all share (assay type): cell-based, human
One test concerns IL-8. Nature of the test: IL-8 expression in PBECs (ELISA, RT-PCR). The settings on record: ML-1 10 and 100 ng/ml, 24 and 48 hours, ELISA. As to the method: (§1) FIG. 5. Analysis of IL-6 (FIG. 5A) and IL-8 (FIG. 5B) expression in primary bronchial epithelial cells (PBECs) and human umbilical vein endothelial cells (HUVECs) stimulated by ML-1. The IL-6 and IL-8 protein release in the supernatant was determined by ELISA as described in Example 8. The results were expressed as mean+SD (n=6). *p<0.05 was considered significant vs control.
(§2) FIG. 7A-7D. Effect of PD98059 on IL-6 (FIG. 7A) and IL-8 (FIG. 7B) protein production in PBECs and HUVECs. The cells were preincubated with varying concentrations of PD98059, SB202190, or DMSO vehicle control for 1 hour, followed by stimulation with ML-1 (100 ng/ml) for 24 hours. The results are expressed as the mean+SD (n=6). *P<0.05 when compared to cultures without the addition of PD98059. FIGS. 7C and 7D. Semi-quantitative analysis of gene expression for IL-6 (FIG. 7C) and IL-8 (FIG. 7D) by RT-PCR. The cells were preincubated as described above and treated with ML-1 for 4 hours. RT-PCR was performed as described in Example 8. The results shown are representative of three separate experiments.
Primary bronchial epithelial cells (PBECs) were purchased from Clonetics (San Diego, Calif.) and cultured in bronchial epithelial basal medium (Clonetics) containing 0.5 ng/ml human recombinant epidermal growth factor (EGF), 52 mg/ml bovine pituitary extract, 0.1 mg/ml retinoic acid, 0.5 mg/ml hydrocortisone, 5 mg/ml insulin, 10 mg/ml transferrin, 0.5 mg/ml epinephrine, 6.5 ng/ml triiodothyronine, […] gentamicin, and 50 pg/ml amphotericin-B (Clonetics). […]
(§3) The amplification reaction was performed for 23 cycles with denaturation at 94° C. for 45 seconds, annealing at 56° C. for 45 seconds, and extension at 72° C. for 45 seconds. PCR products were detected by ethidium bromide staining and normalized by the intensity of an amplified housekeeping gene, G3PDH (see above). […] IL-6 and IL-8 protein levels in the collected supernatants were determined with a commercially available ELISA kit (Biosource, Camarillo, Calif.) according to the manufacturer's instructions.

A further test relates to JNK. Nature of the test: Western blotting of JNK activation in ML-1-stimulated cells. To be noted: any time point, FIG. 6A (PBECs). As to the method:
FIGS. 6A-6D. Kinetic activation of ERK1/2 by ML-1 in PBECs (FIG. 6A) and HUVECs (FIG. 6B). The cells were incubated with or without ML-1 (100 ng/ml) for different time points as indicated. Western blotting analysis was performed by using antibodies against different MAP kinases as described in Example 8. FIGS. 6C and 6D. Effect of PD98059 on ML-1-induced phosphorylation of ERK1/2 in PBECs (FIG. 6C) and HUVECs (FIG. 6D). The cells were preincubated with PD98059 ([…]) or DMSO vehicle control for 1 hour, followed by stimulation of PBECs and HUVECs with medium or ML-1 for 20 minutes or 10 minutes, respectively. The results shown are representative of three separate experiments.
For analysis of activation of MAP kinases, PBECs were treated with IL-17 (100 ng/ml) for various time periods, with or without the MEK 1/2 inhibitor PD98059 ([…]; Calbiochem, La Jolla, Calif.) (15), the p38 inhibitor SB202190 (0.5-10 μM; ref. 16), or a vehicle control, DMSO (Me2SO) for 1 hour. […] Following the treatment, the cells were washed with ice-cold PBS. […]
Immunoreactive proteins were detected using antibodies against various kinases and phosphorylated kinases. […] Western blotting detection reagents (Amersham) and Hyper ECL luminescence detection film (Amersham) were used. […]
A general note: In western blotting, separated proteins are transferred to a membrane and probed.

The next test concerns IL-6. Nature of the test: IL-6 expression in HUVECs (ELISA, RT-PCR). The settings on record: ML-1 10 and 100 ng/ml, 24 and 48 hours, ELISA. As to the method:
as §1, §2
Human umbilical vein endothelial cells (HUVECs) were obtained from Clonetics and cultured in endothelial cell growth media (EGM; Clonetics) containing 12 μg/ml bovine brain extract, 10 ng/ml EGF, 1 μg/ml hydrocortisone, 50 μg/ml gentimicin, 50 ng/ml amphotericin B, and 5% FBS amphotericin-B (Clonetics).
PBECs and HUVECs were treated with ML-1 100 ng/ml of ML-1 for various time points. Total RNA was extracted using RNeasy (Qiagen) from 1×10^6 cells 4 hours after stimulation or exchange of media. […]
as §3

“Also recorded” adds a separate entry of the source.

B1: ML-1: new member of the IL-17 cytokine family, SEQ ID NO:2; His-tagged recombinant protein expressed in COS-7 cells and affinity purified (protein, listed as Homo sapiens)
chain: MKLDIGIINENQRVSMSRNIESRSTSPWNYTVTWDPNRYPSEVVQAQCRNLGCINAQGKEDISMNSVPIQQETLVVRRKHQGCSVSFQLEKVLVTVGCTCVTPVIHHVQ
modifications: His tag
Consider B1, for which the IL-8 production entry in the test on IL-8 is given as “time-dependent increase; also recorded: significantly induced”. Also, in the test with JNK, the “activation of JNK kinase” value is reported as “No activation”. Also, in the test with IL-6, the IL-6 production entry is given as “time-dependent increase; also recorded: significantly induced”.
